Assay results taken from paper PMC12177098, “A human-like glutaminase-free asparaginase is highly efficacious in ASNS^low leukemia and solid cancer mouse xenograft models” (Cancer letters, 2024).

How the values were obtained:
[1] = target: T1, E. coli L-ASNase (EcA) (Escherichia coli, UniProt P00805); test: continuous coupled NADH assay (L-glutamic dehydrogenase); NMR; format: biochemical; conditions: 5 mM GLN, 10 nM enzyme (spectrophotometric); 0.1 and 2 μM enzyme (NMR)
T1 construct: gene ansB; made in cytosol of E. coli C41(DE3) from His6-SUMO-pET14b, His-SUMO tag cut with SUMO protease, gel filtration; family forms tetramers
T1 sequence (P00805 23-348): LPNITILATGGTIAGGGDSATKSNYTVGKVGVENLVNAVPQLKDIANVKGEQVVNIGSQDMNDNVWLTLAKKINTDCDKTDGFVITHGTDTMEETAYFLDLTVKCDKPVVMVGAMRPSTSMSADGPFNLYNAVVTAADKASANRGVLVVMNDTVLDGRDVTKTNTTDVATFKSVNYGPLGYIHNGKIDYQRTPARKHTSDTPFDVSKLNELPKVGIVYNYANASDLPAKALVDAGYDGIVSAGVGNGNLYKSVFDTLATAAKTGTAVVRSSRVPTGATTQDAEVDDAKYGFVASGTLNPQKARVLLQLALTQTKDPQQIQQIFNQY

[2] = target: T2, EBD-200 (Cavia porcellus, UniProt H0W0T5); conditions: read-out: EBD-200 ^a; 50 mM Tris-HCl pH 7.5, 200 mM NaCl, 37 °C
T2 construct: gene ASPG
Text: continuous coupled NADH spectrophotometric assay (malic dehydrogenase / glutamic-oxalacetic transaminase) on EBD-200

[3] = substrate: NC(=O)C[C@H](N)C(=O)O; test: continuous coupled NADH spectrophotometric assay (malic dehydrogenase / glutamic-oxalacetic transaminase); format: biochemical, Escherichia coli; conditions: 50 mM Tris-HCl pH 7.5, 200 mM NaCl, 37 °C
[4] = substrate: NC(=O)C[C@H](N)C(=O)O; test: purified protein; conditions: 50 mM Tris-HCl pH 7.5, 200 mM NaCl, 37 °C, in-house preparation, 0.6 % WT contamination, printed as >1.4 mM

T2 sequence (H0W0T5 1-359): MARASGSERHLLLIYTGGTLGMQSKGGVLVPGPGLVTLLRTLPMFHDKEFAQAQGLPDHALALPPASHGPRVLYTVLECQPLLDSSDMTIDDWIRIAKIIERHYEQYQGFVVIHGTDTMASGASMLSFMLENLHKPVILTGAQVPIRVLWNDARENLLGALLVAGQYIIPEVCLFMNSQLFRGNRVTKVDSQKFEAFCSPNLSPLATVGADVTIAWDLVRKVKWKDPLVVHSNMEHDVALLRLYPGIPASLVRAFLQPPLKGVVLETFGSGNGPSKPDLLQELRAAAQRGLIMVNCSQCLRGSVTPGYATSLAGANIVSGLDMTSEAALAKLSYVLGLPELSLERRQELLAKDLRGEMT

NC(=O)CC[C@H](N)C(=O)O [L-GLN] was tested, and the “continuous coupled NADH assay (L-glutamic dehydrogenase); NMR” value [1] was “GLNase activity is easily observed by EcA but not by EBD-200”.

NC(=O)C[C@H](N)C(=O)O [L-ASN] gave a Km [2] of 41.3 ± 0.7 µM.

B1: E. coli L-ASNase (EcA) (Escherichia coli K-12) (protein)
chain: LPNITILATGGTIAGGGDSATKSNYTVGKVGVENLVNAVPQLKDIANVKGEQVVNIGSQDMNDNVWLTLAKKINTDCDKTDGFVITHGTDTMEETAYFLDLTVKCDKPVVMVGAMRPSTSMSADGPFNLYNAVVTAADKASANRGVLVVMNDTVLDGRDVTKTNTTDVATFKSVNYGPLGYIHNGKIDYQRTPARKHTSDTPFDVSKLNELPKVGIVYNYANASDLPAKALVDAGYDGIVSAGVGNGNLYKSVFDTLATAAKTGTAVVRSSRVPTGATTQDAEVDDAKYGFVASGTLNPQKARVLLQLALTQTKDPQQIQQIFNQY
notes: made in cytosol of E. coli C41(DE3) from His6-SUMO-pET14b, His-SUMO tag cut with SUMO protease, gel filtration; family forms tetramers
B1 gave a Km [3] of 14 µM and a kcat [3] of 44 s⁻¹.

B2: E. coli L-ASNase (EcA) (Escherichia coli K-12; Q81L) (protein)
chain: LPNITILATGGTIAGGGDSATKSNYTVGKVGVENLVNAVPQLKDIANVKGEQVVNIGSLDMNDNVWLTLAKKINTDCDKTDGFVITHGTDTMEETAYFLDLTVKCDKPVVMVGAMRPSTSMSADGPFNLYNAVVTAADKASANRGVLVVMNDTVLDGRDVTKTNTTDVATFKSVNYGPLGYIHNGKIDYQRTPARKHTSDTPFDVSKLNELPKVGIVYNYANASDLPAKALVDAGYDGIVSAGVGNGNLYKSVFDTLATAAKTGTAVVRSSRVPTGATTQDAEVDDAKYGFVASGTLNPQKARVLLQLALTQTKDPQQIQQIFNQY
B2 gave a Km [4] of 1400 µM and a kcat [4] of 1.3 s⁻¹.
